From the supplement of paper PMC10567573

B1: RSPH3 (parent)
chain: LELQRQREARKRALARKQAQEQLR
B2: OAS1 (parent)
chain: LTVYAWERGSMKTHFNTAQGFRTV

Variants of: B1
Test: protein stability index of a GFP-peptide fusion (GPS, HEK-293T) (PSI 1-6); higher = more stable
Conditions: c terminus: a fixed tail appended
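Also: lentivirally expressed fusions sorted by FACS into six bins by GFP to DsRed ratio, PSI derived from sequencing read proportions per bin multiplied by bin number.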

Point of comparison: K17T, protein stability index 4.43. Against it:
- R16Y — lower, 3.4
- K17A — lower, 4.1
- K17C — lower, 3.77
- K17D — lower, 3.92
- K17E — higher, 4.69
- K17F — lower, 3.95
- K17G — higher, 4.66
- K17H — lower, 4.17
- K17I — lower, 3.77
- K17L — lower, 3.97
- K17M — lower, 4.14
- K17N — higher, 4.45
- K17P — higher, 4.48
- K17Q — lower, 4.15
- K17R — lower, 4.38
- K17S — lower, 4.21
- K17V — lower, 4.31
- K17W — lower, 3.44
- K17Y — lower, 3.71
- Q18A — lower, 3.12
- Q18C — lower, 2.81
- Q18E — lower, 3.86
- Q18F — lower, 3.53
- Q18G — lower, 3.4
- Q18H — lower, 3.11
- Q18I — lower, 2.33
- Q18K — lower, 3.39
- Q18L — lower, 3.13
- Q18M — lower, 3.46
- Q18N — lower, 3.68
- Q18P — lower, 4.32
- Q18R — lower, 3.64
- Q18S — lower, 3.38
- Q18T — lower, 4.05
- Q18V — lower, 2.56
- Q18W — lower, 2.5
- Q18Y — lower, 2.81
- A19C — lower, 4.22
- A19D — lower, 4.37
- A19E — lower, 3.28
- A19F — lower, 3.08
- A19G — lower, 3.53
- A19H — lower, 4.33
- A19I — lower, 3.55
- A19K — lower, 4.08
- A19L — lower, 3.09
- A19M — lower, 3.37
- A19N — lower, 4.08
- A19P — lower, 3.72
- A19Q — higher, 4.54
- A19S — lower, 4.17
- A19T — lower, 4
- A19V — lower, 3.27
- A19W — lower, 3.15
- A19Y — lower, 2.92
- Q20A — lower, 3.61
- Q20C — lower, 3.35
- Q20D — higher, 4.74
- Q20E — higher, 4.48
- Q20F — lower, 2.02
- Q20G — lower, 3.52
- Q20H — lower, 3.77
- Q20I — lower, 3.47
- Q20K — lower, 4.38
- Q20L — lower, 2.8
- Q20M — lower, 2.88
- Q20N — lower, 3.11
- Q20P — lower, 4.32
- Q20R — lower, 3.79
- Q20S — lower, 3.77
- Q20T — lower, 3.79
- Q20V — lower, 3.78
- Q20W — lower, 2.04
- Q20Y — lower, 2.45
- E21A — lower, 2.72
- E21C — lower, 3.01
- E21D — lower, 3.62
- E21F — lower, 2.93
- E21G — lower, 3.09
- E21H — lower, 3.23
- E21I — lower, 3.33
- E21K — lower, 4.28
- E21L — lower, 3.48
- E21M — lower, 3.75
- E21N — lower, 3.87
- E21P — lower, 3.45
- E21Q — lower, 3.23
- E21R — lower, 3.99
- E21S — lower, 3.73
- E21T — lower, 3.81
- E21V — lower, 3.31
- E21W — lower, 3.48
- E21Y — lower, 3
- Q22A — lower, 4.19
- Q22C — lower, 3.11
- Q22D — lower, 4.29
- Q22E — lower, 3.8
- Q22F — lower, 3.04
- Q22G — lower, 4.22
- Q22H — lower, 2.95
- Q22I — lower, 2.65
- Q22K — lower, 3.77
- Q22L — lower, 3.63
- Q22M — lower, 2.92
- Q22N — lower, 4.14
- Q22P — lower, 3.79
- Q22R — lower, 3.93
- Q22S — lower, 3.5
- Q22T — lower, 3.16
- Q22V — lower, 3.37
- Q22W — lower, 2.8
- Q22Y — lower, 3.01
- L23A — higher, 4.96
- L23C — lower, 4.26
- L23D — lower, 4.42
- L23E — higher, 4.59
- L23F — lower, 3.96
- L23G — higher, 4.78
- L23H — lower, 4.25
- L23I — lower, 3.56
- L23K — lower, 3.83
- L23M — lower, 4.31
- L23N — lower, 3.92
- L23P — lower, 3.78
- L23Q — lower, 4.35
- L23R — lower, 4.16
- L23S — lower, 3.78
- L23T — lower, 4.08
- L23V — lower, 2.77
- L23W — lower, 3.69
- L23Y — lower, 3.9
- R24A — lower, 3.97
- R24C — lower, 4.13
- R24D — lower, 4.2
- R24E — higher, 4.56
- R24F — lower, 3.77
- R24G — lower, 4.13
- R24H — lower, 3.85
- R24I — lower, 3.46
- R24K — lower, 3.72
- R24L — lower, 3.18
- R24M — lower, 3.33
- R24N — lower, 4.23
- R24P — lower, 3.86
- R24Q — higher, 4.54
- R24S — lower, 3.8
- R24T — lower, 3.82
- R24V — the same, 4.43
- R24W — lower, 2.98
- R24Y — lower, 3.16

Variants of: B2
Test: as above
Conditions: c terminus: a fixed tail appended

Point of comparison: L1S, protein stability index 2.1. Against it:
- L1A — higher, 2.32
- L1C — lower, 1.74
- L1D — higher, 2.26
- L1E — higher, 2.17
- L1F — higher, 2.48
- L1G — higher, 2.31
- L1H — higher, 2.13
- L1I — lower, 1.71
- L1K — higher, 2.17
- L1M — higher, 2.57
- L1N — lower, 2
- L1P — higher, 2.14
- L1Q — lower, 1.79
- L1R — higher, 2.28
- L1T — lower, 2.09
- L1V — lower, 1.5
- L1W — higher, 2.79
- L1Y — higher, 2.19
- T2A — lower, 2.03
- T2C — lower, 1.6
- T2D — lower, 1.8
- T2E — lower, 1.91
- T2F — higher, 3.19
- T2G — lower, 1.25
- T2H — higher, 2.11
- T2I — higher, 2.45
- T2K — higher, 2.87
- T2L — higher, 2.7
- T2M — lower, 1.69
- T2N — lower, 1.84
- T2P — lower, 1.93
- T2Q — lower, 1.86
- T2R — lower, 2.04
- T2S — higher, 2.21
- T2V — higher, 2.23
- T2W — higher, 2.55
- T2Y — higher, 2.45
- V3A — higher, 2.24
- V3C — lower, 2.02
- V3D — higher, 2.57
- V3E — lower, 2.09
- V3F — higher, 3.04
- V3G — lower, 1.91
- V3H — higher, 2.36
- V3I — higher, 3.14
- V3K — higher, 2.12
- V3L — higher, 2.49
- V3M — higher, 2.16
- V3N — lower, 2.05
- V3P — lower, 1.77
- V3Q — lower, 2.09
- V3R — higher, 2.46
- V3S — higher, 2.12
- V3T — lower, 1.96
- V3W — higher, 2.92
- V3Y — higher, 2.7
- Y4A — lower, 2.01
- Y4C — lower, 1.38
- Y4D — lower, 2.09
- Y4E — lower, 1.97
- Y4F — higher, 2.96
- Y4G — higher, 2.76
- Y4H — lower, 1.66
- Y4I — higher, 3.51
- Y4K — higher, 2.16
- Y4L — higher, 2.55
- Y4M — lower, 1.51
- Y4N — lower, 1.94
- Y4P — higher, 2.31
- Y4Q — lower, 1.86
- Y4R — lower, 1.77
- Y4S — lower, 1.83
- Y4T — lower, 1.59
- Y4W — lower, 1.19
- A5C — higher, 3.68
- A5D — higher, 2.59
- A5E — higher, 2.46
- A5G — higher, 2.14
- A5H — lower, 1.69
- A5K — lower, 1.63
- A5L — higher, 2.8
- A5M — lower, 2.06
- A5N — higher, 2.29
- A5P — higher, 2.19
- A5Q — lower, 1.54
- A5R — higher, 2.9
- A5S — lower, 1.91
- A5T — higher, 2.75
- A5V — higher, 2.34
- A5Y — higher, 3.25
- W6A — lower, 1.86
- W6C — lower, 1.61
- W6D — lower, 1.87
- W6E — higher, 2.23
- W6F — higher, 2.89
- W6G — lower, 1.73
- W6H — higher, 2.2
- W6I — higher, 2.41
- W6K — lower, 1.53
- W6L — higher, 2.63
- W6M — higher, 3.17
- W6N — lower, 2.06
- W6P — lower, 1.69
- W6Q — lower, 1.66
- W6R — lower, 1.44
- W6S — lower, 1.59
- W6T — higher, 2.45
- W6V — higher, 2.29
- W6Y — lower, 1.9
- E7A — higher, 3.15
- E7C — higher, 3.64
- E7D — higher, 2.14
- E7F — higher, 2.85
- E7G — higher, 2.18
- E7H — higher, 2.41
- E7I — higher, 2.63
- E7K — higher, 2.28
- E7L — higher, 3.71
- E7M — higher, 3.48
- E7N — lower, 1.99
- E7P — higher, 2.46
- E7Q — higher, 3.28
- E7R — lower, 2.05
- E7S — higher, 2.76
- E7T — higher, 3.32
- E7V — higher, 3.45
- E7W — lower, 1.98
- E7Y — lower, 1.92
- R8A — higher, 2.38
- R8C — lower, 1.85
- R8D — higher, 2.89
- R8E — higher, 2.4
- R8F — higher, 2.26
- R8G — higher, 2.33
- R8H — higher, 2.13
- R8I — higher, 2.15
- R8K — lower, 1.53
- R8L — higher, 3.07
- R8M — higher, 2.73
- R8N — higher, 2.65
- R8P — higher, 4.46
- R8Q — higher, 2.56
- R8S — higher, 2.55
- R8T — higher, 3.1
- R8V — higher, 2.77
- R8W — higher, 2.69
- R8Y — higher, 3.38
- G9C — higher, 3.73
- G9D — higher, 2.6
- G9E — higher, 2.7
- G9F — higher, 3.19
- G9H — lower, 1.61
- G9I — lower, 1.86
- G9K — lower, 1.8
- G9L — higher, 2.91
- G9M — higher, 2.85
- G9N — higher, 2.48
- G9P — higher, 3.81
- G9Q — lower, 1.87
- G9R — lower, 2.02
- G9S — higher, 2.49
- G9T — higher, 2.55
- G9W — higher, 2.69
- G9Y — higher, 2.93
- S10A — lower, 2.05
- S10C — higher, 2.82
- S10D — lower, 1.75
- S10E — higher, 3.28
- S10F — higher, 2.93
- S10G — higher, 2.28
- S10H — higher, 2.71
- S10I — lower, 1.91
- S10L — lower, 2
- S10M — higher, 2.46
- S10N — higher, 2.53
- S10P — lower, 1.54
- S10Q — lower, 1.99
- S10R — lower, 2.08
- S10V — higher, 2.62
- S10Y — higher, 3.69
- M11A — lower, 1.75
- M11C — higher, 3.65
